Data as given in paper PMC2749708.

Columns and labels:
[1] = target: N-WASP GBD (amino acids 214-274) (UniProt O08816)
[2] = target: EspFU three-repeat fragment; assay: AUC + other: binding assays
EspFU three-repeat fragment, sequence (C6UYI3 whole entry, the tested form may be a part): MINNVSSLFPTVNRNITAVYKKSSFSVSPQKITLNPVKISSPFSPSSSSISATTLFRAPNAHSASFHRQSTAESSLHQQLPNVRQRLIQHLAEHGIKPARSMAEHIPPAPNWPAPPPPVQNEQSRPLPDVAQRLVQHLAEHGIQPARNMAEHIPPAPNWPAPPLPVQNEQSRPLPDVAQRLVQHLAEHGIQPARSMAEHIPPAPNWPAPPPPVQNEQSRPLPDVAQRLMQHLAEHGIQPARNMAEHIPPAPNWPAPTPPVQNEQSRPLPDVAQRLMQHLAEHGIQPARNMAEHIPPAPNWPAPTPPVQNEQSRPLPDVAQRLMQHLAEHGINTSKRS

UniProt O08816, sequence (O08816 214-274): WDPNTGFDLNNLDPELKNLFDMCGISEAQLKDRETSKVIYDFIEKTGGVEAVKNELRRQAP

Substance | Kd [1] | stoichiometry N [2]
one EspFU repeat (domain or fragment) | 18 nM | –
N-WASP GBD (domain or fragment) | – | 3
